Measurements taken from patent US20240166737A1 (Janssen / Centocor, published 2024).

How the values were obtained:
[1] = molecular target: T1, CD3 epsilon on human T-cells (human, UniProt P07766 23-207); assay: cell-based or functional assay
[2] = molecular target: T1, CD3 epsilon on human T-cells; assay: T-cell binding assay, FIG. 15
[3] = molecular target: T2, MSNW10, recombinant full length human MSLN (human, UniProt Q13421 296-598); assay: SPR, additional experiments
T2 construct: also called MSNW10.002; FL-MSLN
T2 sequence (Q13421 other isoform, or with tags, fused parts or gaps limits assumed): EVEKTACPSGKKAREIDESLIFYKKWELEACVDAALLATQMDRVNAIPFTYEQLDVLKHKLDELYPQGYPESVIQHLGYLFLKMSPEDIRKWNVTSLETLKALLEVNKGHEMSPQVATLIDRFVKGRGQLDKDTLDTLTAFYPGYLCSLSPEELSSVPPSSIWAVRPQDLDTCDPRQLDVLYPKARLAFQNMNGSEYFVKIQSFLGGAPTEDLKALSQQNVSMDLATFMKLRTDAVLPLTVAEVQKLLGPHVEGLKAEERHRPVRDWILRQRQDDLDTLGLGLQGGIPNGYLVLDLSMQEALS

[4] = molecular target: T3, 14 AA stub (a.a. 290-303 of SEQ ID NO: 247) (human); assay: SPR, mAb captured, peptide injected
T3 peptide: GYLVLDLSMQEALS
Description: (§1) The binding was assessed by SPR. Briefly, GAH-Fc was used to capture mAbs on C4 sensor chip followed by antigen injection starting at 30 nM (14 amino acid stub), 100 nM (10-13 amino acid stubs), or 1000 nM (7-9 amino acid stubs) progressing in a 3-fold dilution series in single cycle kinetics mode. HBSP+0.01% BSA was used in the assay.

[5] = molecular target: T4, 13 AA stub (a.a. 291-303 of SEQ ID NO: 247) (human); assay: SPR, mAb captured, peptide injected
T4 peptide: YLVLDLSMQEALS
Description: as §1

[6] = molecular target: T5, 12 AA stub region peptide LVLDLSMQEALS (human); assay: SPR, mAb captured, peptide injected
T5 construct: free N-terminus; also called 12 AA Peptide
T5 peptide: LVLDLSMQEALS
Description: as §1

[7] = molecular target: T6, 11 AA stub (a.a. 293-303 of SEQ ID NO: 247) (human); assay: SPR, mAb captured, peptide injected
T6 peptide: VLDLSMQEALS
Description: as §1

[8] = molecular target: T7, 10 AA stub (a.a. 294-303 of SEQ ID NO: 247) (human); assay: SPR, mAb captured, peptide injected
T7 peptide: LDLSMQEALS
Description: as §1

[9] = molecular target: T8, 9 AA stub (a.a. 295-303 of SEQ ID NO: 247) (human); assay: SPR, mAb captured, peptide injected
T8 peptide: DLSMQEALS
Description: as §1

[10] = molecular target: T9, 8 AA stub (a.a. 296-303 of SEQ ID NO: 247) (human); assay: SPR, mAb captured, peptide injected
T9 construct: also called 8 AA Peptide; peptide of the last 8 C-terminal amino acids
T9 peptide: LSMQEALS
Description: as §1

[11] = molecular target: T10, 7 AA stub (a.a. 297-303 of SEQ ID NO: 247) (human); assay: SPR, mAb captured, peptide injected
T10 peptide: SMQEALS
Description: as §1

[12] = molecular target: T11, MSNW11, recombinant soluble (shed) MSLN lacking the C-terminal 7 AAs (human, UniProt Q13421 296-591); assay: H838 cell binding with shed MSLN (MSNW11) added
T11 construct: domain: soluble MSLN lacking the C-terminal 7 AAs; also called MSNW11.002; soluble MSLN
T11 sequence (Q13421 other isoform, or with tags, fused parts or gaps limits assumed): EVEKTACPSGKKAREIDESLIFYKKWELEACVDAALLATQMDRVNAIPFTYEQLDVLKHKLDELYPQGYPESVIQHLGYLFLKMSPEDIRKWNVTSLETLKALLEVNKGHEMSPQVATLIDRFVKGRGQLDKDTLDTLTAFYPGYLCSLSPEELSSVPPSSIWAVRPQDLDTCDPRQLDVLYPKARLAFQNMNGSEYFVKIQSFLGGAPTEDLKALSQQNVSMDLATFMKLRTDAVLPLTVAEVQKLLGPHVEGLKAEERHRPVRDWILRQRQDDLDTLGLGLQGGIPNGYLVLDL
Source text: Table 16 lists the immunization campaigns, antigens used, and number of clones returned at each stage of screening. Clones from which antibody sequences were successfully recovered were first screened for binding to recombinant full length human MSLN (MSNW10) and H838 cells that express MSLN on the cell surface. Binders were further screened for binding to cells in the presence of recombinant soluble MSLN lacking the C-terminal 7 AAs (MSNW11). This form of recombinant MSLN represented the product of cleavage at the closest cleavage site to the C-terminus known at the time, therefore, it theoretically represented the longest form of shed MSLN. The final concentration of shed MSLN in the assays was 100 nM.

[13] = molecular target: T2, MSNW10, recombinant full length human …; assay: SPR, recombinant full-length human MSLN
[14] = molecular target: T9, 8 AA stub (a.a. 296-303 of SEQ ID NO: …); assay: competition of OVCAR8 cell binding by the peptide
[15] = molecular target: T12, human MSLN on the cell surface (human, UniProt Q13421 296-598); assay: high content imaging, surface staining of OVCAR8 cells
T12 construct: on cells stands the processed GPI-anchored 40 kDa MSLN; also called membrane MSLN; MSLN on H838, OVCAR-8 (OVCAR8), OVCAR-8 K1/C8, SK-OV-3 cells
Description: OVCAR8 cells were cultured in RPMI 1640 medium supplemented with 10% FCS, 1% L-glutamine and 1% Gentamycin and seeded in Greiner CELLSTAR plate one day before experiment. 24 h after seeding, antibody mixture was prepared by diluting MSLN and control antibodies in Table 21 in full media containing CellMask™ Deep Red Plasma Membrane Stain (ThermoFisher, C10046) in 12 concentrations each with 3 folds dilution starting from 20 μg/ml and 20 μl of which were added directly to the cells in 20 μl. Antibodies were allowed for binding to the cell surface for 2h inside the incubator (37°) C. and the surface bound antibodies were fixed for 15 min at RT by directly adding 30 ul of 10% Formaldehyde (04018-1, Polysciences). Afterwards residual Formaldehyde was removed by washing the cells twice with PBS and the primary antibodies were stained with secondary antibodies (Alexa Fluor 488 goat anti-human IgG, Invitrogen, A11013) complemented with Hoechst 33342 (H3570, ThermoFisher) and HCS CellMask™ Deep Red Stain (ThermoFisher, H32721) in PBS for 1h at RT. After removing unbound antibodies and other dyes by washing the cells 3 times with PBS cells were imaged on the CellVoyager 7000 (Yokogawa, Tokyo, Japan) using a 40×/0.95 objective. Of each well, 9 fields were imaged. Image analysis was performed with Acapella (PerkinElmer, Waltham, MA, USA) and the results stored in Phaedra (OpenAnalytics, Antwerp, Belgium). Data analysis was done in R (www.r-project.org).
The data was then fitted using the four-parameter logistic using least-squares regression, keeping the lower boundary fixed at 0.

[16] = molecular target: T5, 12 AA stub region peptide LVLDLSMQEALS; assay: SPR

T1 sequence (P07766 23-207 limits assumed): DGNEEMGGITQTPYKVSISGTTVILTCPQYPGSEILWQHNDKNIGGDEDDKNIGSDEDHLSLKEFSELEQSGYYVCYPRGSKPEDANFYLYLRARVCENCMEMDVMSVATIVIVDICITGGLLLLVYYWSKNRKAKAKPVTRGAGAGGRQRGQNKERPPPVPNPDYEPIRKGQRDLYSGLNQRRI

Row | Binder | EC50 [2] | Kd [4] | Kd [5] | Kd [6] | binding result [7] | binding result [8] | binding result [9] | binding result [11] | binding result [12] | Kd [13] | IC50 [15] | Maximum Value (arbitrary units) [15] | also measured
1 | MSLNB570 (antibody, V domains shown, mAb; also called MSNB570) VH: QVQLQQSGPGLVKPSQTLSLTCAISGDSVSSTSVAWNWIRQSPSGGLEWLGRTYYRSKWYNDYALSVKSRMTINPDTASNQFSLQLNSVTPEDTAVYYCSRGIVGALDYWGQGTLVTVSS VL: DIVMTQTPLSLPVTPGGPASISCRSSQSLMYSNGYNHLDWYLQKPGQSPQFLIHLGSNRVSGVPDRFSGSGSGTDFTLKISRVEAEDVGVYYCMQALRTPYTFGQGTKVDIK |  | 3.67 nM | 4.37 nM | 7.97 nM | no binding (tested: 100 nM) | no binding (tested: 100 nM) | no binding (tested: 1000 nM) | no binding (tested: 1000 nM) | no binding (tested: 100 nM) | 3.6 nM | 0.0728 µg/mL | 1.39e+07 arbitrary units | binding result [14]: no binding
2 | MSLNB571 (antibody, V domains shown, mAb; also called MSNB571) VH: QVQLQQSGPGLVKPSQTLSLTCAISGDSVSSTSVAWNWIRQSPSGGLEWLGRIYYRSKWYNDYALSVKSRMTINPDTASNQFSLQLNSVTPEDTAVYYCSRGIVGALDYWGQGTLVTVSS VL: DIVMTQTPLSLPVTPGGPASISCRSSQSLMYSNGYNHLDWYLQKPGQSPQFLIHLGSNRVSGVPDRFSGSGSGTDFTLKISRVEAEDVGVYYCMQALRTPYTFGQGTKVDIK |  |  |  |  |  |  |  |  | no binding (tested: 100 nM) | 1.8 nM | 0.0735 µg/mL | 1.46e+07 arbitrary units | binding result [16]: binds
3 | CD3W245 HL formatted in the 2+1 format (bispecific antibody, two MSLN targeting (MSNB457) Fabs and one CD3 scFv set between Fab and Fc of one heavy chain; also called CD3W245 HL 2+1) scFv: EVQLVESGGGLVKPGGSLRLSCAASGFTFSRYNMNWVRQAPGKGLEWVSSISTSSNYIYYADSVKGRFTFSRDNAKNSLDLQMSGLRAEDTAIYYCTRGWGPFDYWGQGTLVTVSSGGSEGKSSGSGSESKSTGGSDIQMTQSPSSLSASVGDRVTITCRARQSIGTAIHWYQQKPGKAPKLLIKYASESISGVPSRFSGSGSGTDFTLTISSLQPEDFATYYCQQSGSWPYTFGQGTKLEIK VH: QVQLVESGPGQVKPSQTLSLTCAISGDSVSSNSAAWNWIRQSPSRGLEWLGRTYYRSKWYNDYAVSVKSRITINPDTSKNQFSLQLNSVTPEDTAVYYCARRDYSSGGFDYWGQGTTVTVSS VL: not shown | 44 nM |  |  |  |  |  |  |  |  |  |  |  | 

Further lines, with some results ahead:

Row | EC50 [2] | Kd [4] | Kd [5] | Kd [6] | binding result [7] | binding result [8] | binding result [9] | binding result [11] | binding result [12] | Kd [13] | IC50 [15] | Maximum Value (arbitrary units) [15] | Binder | also measured
4 | 2 nM |  |  |  |  |  |  |  |  |  |  |  | MNC3B187 (bispecific antibody, Bipod: MSNB457 Fab x CD3W245 HL scFv-Fc; also called CD3W245 HL containing Bipod) scFv: EVQLVESGGGLVKPGGSLRLSCAASGFTFSRYNMNWVRQAPGKGLEWVSSISTSSNYIYYADSVKGRFTFSRDNAKNSLDLQMSGLRAEDTAIYYCTRGWGPFDYWGQGTLVTVSSGGSEGKSSGSGSESKSTGGSDIQMTQSPSSLSASVGDRVTITCRARQSIGTAIHWYQQKPGKAPKLLIKYASESISGVPSRFSGSGSGTDFTLTISSLQPEDFATYYCQQSGSWPYTFGQGTKLEIK VH: QVQLVESGPGQVKPSQTLSLTCAISGDSVSSNSAAWNWIRQSPSRGLEWLGRTYYRSKWYNDYAVSVKSRITINPDTSKNQFSLQLNSVTPEDTAVYYCARRDYSSGGFDYWGQGTTVTVSS VL: not shown | AC90 [nM], cytotoxicity, 1:1 E:T, 72 hours [1]: 0.016 nM; Max. Activity, cytotoxicity, 1:1 E:T, 72 hours [1]: 88%; qAC50 [nM], cytotoxicity, 1:1 E:T, 72 hours [1]: 0.0035 nM
5 |  | 0.563 nM | 1.08 nM | 2.04 nM | no binding (tested: 100 nM) | no binding (tested: 100 nM) | no binding (tested: 1000 nM) | no binding (tested: 1000 nM) | no binding (tested: 100 nM) |  |  |  | MSLNB591 (antibody, V domains shown, mAb; also called MSNB591) VH: QVQLQQSGPGLVKPSQTLSLTCGISGDSVSSSSVAWNWIRQSPSRGLEWLGRTYYRSKWYNDYAISVRSRVTINPDTSKNQFSLQLNSVTPEDTAVYYCSRGVVGALDYWGQGTLVTVSS VL: DIVMTQSPLSLTVTPGEPASISCRSSQSLLFTNGYNSLDWYLQKPGQSPQFLIYLVSNRASGVPDRFSGSGSGTDFTLKISRVEAEDVGVYYCMQALRTPYTFGQGTKVDIK | Kd [3]: 0.3 nM; binding result [10]: no binding (tested: 1000 nM)
